Changes are numbered by the printed parent chain. Where “and” joins values, the source holds several entries; their conditions need not be identical. Identical values can stand only once.
B1: II-E2: FL#62-derived P450 variant (SEQ ID NO. 13) (protein)
chain: MTIKEMPQPKTFGELKNLPLLNTDKPVQALMKIADELGEIFKFEAPGRVTRYLSSQRLIKEACDESRFDKNLSQALKFNRDFAGDGLATSWTHEKNWKKAHNILLPSFSQQAMKGYHAMMVDIAVQLVQKWERLNADEHIEVSEDMTRLTLDTIGLCGFNYRFNSFYRDQPHPFIISMVRTLDEVMNKLQRANPDDPVYDENKRQCQEDIKVMNDLVDKIIADRKARGEQSDDLLTQMLNGKDPETGEPLDDGNISYQIITFLIAGHETTSGLLSFALYFLVKNPHVLQKVAEEAARVLVDPVPSYKQVKQLKYVGMVLNEALRLWPTAPAFSLYAKEDTVLGGEYPLEKGDEVMVLIPQLHRDKTIWGDDVEEFRPERFENPSAIPQHAFKPFGNGQRACIGQQFALHEATLVLGMMLKHFDFEDHTNYELDIKETLTLKPEGFVVKAKSKKIPLGGIPSPSTEQSAKKVRKKAENAHNTPLLVLYGSNMGTAEGTARDLADIAMSKGFAPQVATLDSHAGNLPREGAVLIVTASYNGHPPDNAKQFVDWLDQASADEVKGVRYSVFGCGDKNWATTYQKVPAFIDETLAAKGAENIADRGEADASDDFEGTYEEWREHMWSDVAAYFNLDIENSEDNKSTLSLQFVDSAADMPLAKMHGAFSTNVVASKELQQPGSARSTRHLEIELPKEASYQEGDHLGVIPRNYEGIVNRVTARFGLDASQQIRLEAEEEKLAHLPLAKTVSVEELLQYVELQDPVTRTQLRAMAAKTVCPPHKVELEALLEKQAYKEQVLAKRLTMLELLEKYPACEMKFSEFIALLPSIRPRYYSISSSPRVDEKQASITVSVVSGEAWSGYGEYKGIASNYLAELQEGDTITCFISTPQSEFTLPKDPETPLIMVGPGTGVAPFRGFVQARKQLKEQGQSLGEAHLYFGCRSPHEDYLYQEELENAQSEGIITLHTAFSRMPNQPKTYVQHVMEQDGKKLIELLDQGAHFYICGDGSQMAPAVEATLMKSYADVHQVSEADARLWLQQLEEKGRYAKDVWAG
B2: V-H2: FL#62-derived P450 variant (SEQ ID NO. 10) (protein)
chain: B1 chain with N79S, F82I
B3: X-E12: II-E2-derived P450 variant (SEQ ID NO. 14), 6a-hydroxylating (protein)
chain: B1 chain with A75V, L182A, V185T
B4: X-F11: II-E2-derived P450 variant (SEQ ID NO. 15), 6a-hydroxylating (protein)
chain: B1 chain with A75T, T181A, V185S
B5: II-H10: FL#62-derived P450 variant (SEQ ID NO. 11), 7(R)-hydroxylating (protein)
chain: B1 chain with A83T, A88F, L182F, V185T
B6: FL#62: CYP102A1-derived engineered P450 variant (SEQ ID NO. 8) (protein)
chain: B1 chain with N79A, F82S, A83V
B7: III-B1: FL#62-derived P450 variant (SEQ ID NO. 12) (protein)
chain: B1 chain with N79F

Key:
wild-type P450BM3 = wild-type P450BM3 (Priestia megaterium, UniProt P14779); details: fatty acid laurate with wild-type P450BM3; read-out: equilibrium dissociation constant; cited from earlier work
Chain of wild-type P450BM3 (P14779 whole entry): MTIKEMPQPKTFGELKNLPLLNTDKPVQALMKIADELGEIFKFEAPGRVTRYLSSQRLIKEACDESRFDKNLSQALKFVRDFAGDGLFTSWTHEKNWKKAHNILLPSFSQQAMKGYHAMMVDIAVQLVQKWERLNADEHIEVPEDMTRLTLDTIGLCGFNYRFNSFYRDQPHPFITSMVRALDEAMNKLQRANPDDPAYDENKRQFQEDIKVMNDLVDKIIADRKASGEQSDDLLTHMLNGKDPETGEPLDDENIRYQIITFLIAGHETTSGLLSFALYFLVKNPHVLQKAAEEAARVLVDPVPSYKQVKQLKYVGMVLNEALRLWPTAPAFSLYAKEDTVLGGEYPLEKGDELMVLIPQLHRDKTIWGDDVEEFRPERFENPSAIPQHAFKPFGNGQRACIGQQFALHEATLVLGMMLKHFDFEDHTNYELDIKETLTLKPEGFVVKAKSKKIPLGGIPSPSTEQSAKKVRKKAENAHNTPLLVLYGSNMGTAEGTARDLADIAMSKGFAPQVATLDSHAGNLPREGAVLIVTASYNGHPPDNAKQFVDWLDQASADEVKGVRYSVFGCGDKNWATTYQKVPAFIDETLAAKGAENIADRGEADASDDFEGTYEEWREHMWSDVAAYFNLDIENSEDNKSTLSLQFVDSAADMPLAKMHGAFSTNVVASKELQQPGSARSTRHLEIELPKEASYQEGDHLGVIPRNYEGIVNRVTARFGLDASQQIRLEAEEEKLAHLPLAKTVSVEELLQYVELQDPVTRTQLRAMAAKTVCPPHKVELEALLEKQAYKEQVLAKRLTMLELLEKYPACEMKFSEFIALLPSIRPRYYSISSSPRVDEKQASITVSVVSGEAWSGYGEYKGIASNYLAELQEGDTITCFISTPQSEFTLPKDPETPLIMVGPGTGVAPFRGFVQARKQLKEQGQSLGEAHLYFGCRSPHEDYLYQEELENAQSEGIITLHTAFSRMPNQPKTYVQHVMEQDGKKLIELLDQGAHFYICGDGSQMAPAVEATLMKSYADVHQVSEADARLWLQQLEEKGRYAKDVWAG

P. berghei ANKA = assay: Antimalarial activity in Plasmodium berghei-infected mice; format: in vivo; design: fold higher survival rate than in the absence of treatment: concentration or dose not given beside the values; details: male C57BL6 mice, after day 7
Protocol: Briefly, asynchronous P. falciparum (strain 3d7) cultures were maintained at 37° C. at >10% parasitemia in fresh human red blood cells (2% hematocrit) in complete malaria medium. After 4 days (i.e., after 2 replicative parasitic cycles) flasks were synchronized with 5% sorbitol. 72 hours after synchronization, cells were plated and treated with the artemisinin derivatives at various concentrations. After 48 hours of incubation, the cells were lysed and labeled with SybrGreen and fluorescence emission was measured (excitation at 485 nm, emission at 530 nm). […] For the in vivo studies, male C57BL6 mice (6-8 weeks old) were infected with 0.7×10^5 P. berghei ANKA iRBCs and then treated with intraperitoneal injections of the compounds starting from day 3-5 post infection. A set of mice was left untreated and served as negative control. Survival was monitored and parasitemia determined SYBR-green (SYBRGr) staining of infected red blood cells and subsequent flow cytometric analysis.

[1] = target: P450 variant FL#62 (SEQ ID NO. 8) (Priestia megaterium, UniProt P14779, A181T/A185V/A198V/A291V/A83V/E253G/F206C/F82S/F88A/H237Q/L354V/P143S/R256S/S227R/T176I/V79A); details: 0.5 mM substrate, 1 μM FL#62, 12 hours
Chain of P450 variant FL#62 (SEQ ID NO. 8) (P14779 other isoform, or with tags, fused parts or gaps with the stated changes): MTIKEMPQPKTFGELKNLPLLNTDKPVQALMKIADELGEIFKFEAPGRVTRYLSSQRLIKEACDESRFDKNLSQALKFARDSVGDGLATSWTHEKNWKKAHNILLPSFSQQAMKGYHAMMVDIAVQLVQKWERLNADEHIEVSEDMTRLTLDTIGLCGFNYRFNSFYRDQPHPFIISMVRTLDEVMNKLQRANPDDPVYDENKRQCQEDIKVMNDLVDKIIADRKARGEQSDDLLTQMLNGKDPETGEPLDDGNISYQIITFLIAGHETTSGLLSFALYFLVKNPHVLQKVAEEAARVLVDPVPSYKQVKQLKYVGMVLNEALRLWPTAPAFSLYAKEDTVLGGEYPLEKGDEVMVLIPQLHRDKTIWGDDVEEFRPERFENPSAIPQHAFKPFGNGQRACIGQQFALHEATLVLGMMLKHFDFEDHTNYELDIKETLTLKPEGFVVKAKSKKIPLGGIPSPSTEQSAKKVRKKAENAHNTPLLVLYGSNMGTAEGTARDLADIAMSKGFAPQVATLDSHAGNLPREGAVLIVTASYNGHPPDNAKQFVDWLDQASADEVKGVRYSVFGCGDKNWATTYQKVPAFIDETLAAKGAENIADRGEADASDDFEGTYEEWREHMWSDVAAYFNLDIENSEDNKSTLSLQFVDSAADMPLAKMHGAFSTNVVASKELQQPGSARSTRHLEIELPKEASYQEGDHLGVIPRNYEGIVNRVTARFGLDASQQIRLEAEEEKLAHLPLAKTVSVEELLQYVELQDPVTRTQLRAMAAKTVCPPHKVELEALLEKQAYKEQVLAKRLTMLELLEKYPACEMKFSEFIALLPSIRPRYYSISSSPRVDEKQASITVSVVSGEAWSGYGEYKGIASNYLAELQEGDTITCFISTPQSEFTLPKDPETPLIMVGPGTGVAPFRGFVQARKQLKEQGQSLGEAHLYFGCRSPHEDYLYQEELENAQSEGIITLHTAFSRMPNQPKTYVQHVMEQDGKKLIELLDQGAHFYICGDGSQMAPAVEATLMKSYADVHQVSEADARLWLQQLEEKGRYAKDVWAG
Protocol: Reaction conditions were: 0.5 mM substrate, 1 μM FL#62 (SEQ ID NO: 8), 2 μM PTDH, 100 μM NADP^+, and 50 mM sodium phosphite in potassium phosphate buffer (50 mM, pH 8.0). After 12 hours, the hydroxylation products formed in these reactions were extracted with dichloromethane and quantified by HPLC and LC-MS.

[2] = format: biochemical; details: 250 μM artemisinin, rates measured over initial 30 seconds
Protocol: Measurement of Product Formation Rates and Coupling Efficiency.
Initial product formation rates were measured from 1 mL-scale reactions containing 250 μM artemisinin, 0.1-0.5 μM purified P450, and 200 μM NADPH in potassium phosphate buffer (50 mM, pH 8.0) at room temperature. After 30 seconds, the samples were extracted with dichloromethane and subjected to benzoyl chloride derivatization followed by HPLC analysis as described above. Cofactor oxidation rate in the presence of artemisinin was measured by monitoring NADPH depletion at 340 nm (ε=6.22 mM^−1 cm^−1) using 0.1 μM purified P450, 250 μM artemisinin, and 200 μM NADPH. Coupling efficiency was calculated from the ratio between the initial product formation rate and the initial NADPH oxidation rate. Reported mean and standard deviation values were calculated from experiments performed at least in triplicate.

[3] = KD for artemisinin binding to P450 variants (heme spin-shift titration); details: binding of artemisinin to 3 μM purified P450, pH 8.0
Protocol: Determination of KD Values for Artemisinin Binding.
Binding experiments were performed using 3 μM purified P450 in potassium phosphate buffer (50 mM, pH 8.0) by titrating increasing amounts of artemisinin (5 μM to 1 mM) from an ethanol stock solution (50 mM). At each concentration, a difference spectrum from 350 to 500 nm was recorded and binding curves were generated by plotting the change in absorbance at 390 nm and 420 nm corresponding to the high-spin and low-spin state of the enzyme, respectively, against the artemisinin concentration. KD values were calculated using Sigma Plot via non-linear fitting of the experimental binding curves to an equation describing a standard 1:1 binding interaction. Reported mean and standard deviation values were calculated from experiments performed at least in triplicate.

[4] = Total turnovers and regio-/stereoselectivity of P450 variants in artemisinin hydroxylation (analytical scale); format: biochemical; details: for regioselectivity toward 6a-hydroxylation: artemisinin as substrate; for Product distribution (%) 4: share of 6a-hydroxy-ART (4); for Product distribution (%) 4 / Product distribution (%) 3 / Product distribution (%) 2: 0.5 mM artemisinin, 0.5-1 μM P450, 12 hours; for Product distribution (%) 3: share of 7(R)-hydroxy-ART (3); for Product distribution (%) 2: share of 7(S)-hydroxy-ART (2); for TTN: total turnovers on artemisinin, NADPH cofactor regeneration system, analytical scale
Protocol: Determination of Total Turnovers and Regio- and Stereoselectivity of the P450 Variants.
After 12 hours, 9-fluorenone was added to the mixtures as internal standard. The hydroxylation products were functionalized with benzoyl chloride followed by HPLC analysis. TTN values were calculated based on the total amount of hydroxylated products in the reactions as quantified based on the calibration curves generated using purified 2-4. The enzyme regio- and stereoselectivity was determined based on the area under the curve of the chromatographic peaks corresponding to the hydroxylation products 2, 3, and 4. Mean and standard deviation values reported for P450 variants in Table 1 were calculated from experiments performed at least in triplicate.

Row | Molecule | Kd (wild-type P450BM3) [µM] | survival rate (P. berghei ANKA; intraperitoneal injections starting from day 3-5 post infection) [%] | fold higher survival rate than in the absence of treatment (P. berghei ANKA; intraperitoneal) [fold] | catalytic activity relative to that displayed in the presence of artemisinin [1] | Product formation rate [2] | Kd [3] [µM] | regioselectivity toward 6a-hydroxylation [4] [%] | Product distribution (%) 4 [4] [%] | Product distribution (%) 3 [4] [%] | Product distribution (%) 2 [4] [%] | TTN [4]
1 | CCCCCCCCCCCC(=O)O [laurate] | 270 | – | – | – | – | – | – | – | – | – | –
2 | CC1C(=O)OC2OC3(C)CCC4C(C)[C@H](F)CC1C24OO3 (stereo partly drawn) [Compound 5, 7(R)-fluoro-artemisinin] | – | 80 | 2 | – | – | – | – | – | – | – | –
3 | COC(=O)CCC(=O)O[C@@H]1O[C@@H]2O[C@@]3(C)CC[C@H]4[C@H](C)CC[C@@H]([C@H]1C)[C@@]24OO3 [artesunate methyl ester] | – | – | – | ca. 80% | – | – | – | – | – | – | –
4 | B1 | – | – | – | – | 148 ± 3 Mole product per mole P450 per minute | 164 ± 18 | 48 | 48 | 30 | 22 | 393 and 393 ± 25
5 | B2 | – | – | – | – | 41 ± 2 Mole product per mole P450 per minute | 45 ± 10 | – | 4 | 0 | 96 | 434 ± 21
6 | B3 | – | – | – | – | 72 ± 3 Mole product per mole P450 per minute | 300 ± 24 | 94 | 94 | 2 | 4 | 113 and 113 ± 12
7 | B4 | – | – | – | – | 56 ± 2 Mole product per mole P450 per minute | 234 ± 29 | 92 | 92 | 8 | 0 | 376 ± 19
8 | B5 | – | – | – | – | 32 ± 2 Mole product per mole P450 per minute | 61 ± 2 | – | 0 | 100 | 0 | 270 ± 8
9 | B6 | – | – | – | – | 316 ± 20 Mole product per mole P450 per minute | 29 ± 5 | 7 | 7 | 10 | 83 | –
10 | B7 | – | – | – | – | 72 ± 2 Mole product per mole P450 per minute | 38 ± 2 | – | 0 | 81 | 19 | 403 ± 17

From US10544159B2, “Artemisinin derivatives, methods for their preparation and their use as antimalarial agents” (priority 2012, dated 2020)
